Assay results from patent US20050074840A1.

molecular target: human TNF-alpha (hTNF-alpha) (human) (UniProt P01375); assay: saturation binding of [125I]TNF-alpha on yeast

Row | Kd | Substance
1 | 1.71 nM | mutant clone 6 TNFrED-agglutinin fusion (H34P + S57I) displayed on yeast (from UniProt P20840 330-650)
2 | 2.04 nM | wild-type TNFrED-agglutinin fusion displayed on the surface of S. cerevisiae BJ2168 (from UniProt P20840 330-650)
3 | 1.31 nM | mutant clone 11 TNFrED-agglutinin fusion (S87P) displayed on yeast (from UniProt P20840 330-650)
